From US20250043019A1 (Janssen / Centocor, published 2025)

Columns and labels:
[1] = biological target: T1, human CD79b on the cell surface (human, UniProt P40259 29-229); assay: cell-based or functional assay
T1 sequence: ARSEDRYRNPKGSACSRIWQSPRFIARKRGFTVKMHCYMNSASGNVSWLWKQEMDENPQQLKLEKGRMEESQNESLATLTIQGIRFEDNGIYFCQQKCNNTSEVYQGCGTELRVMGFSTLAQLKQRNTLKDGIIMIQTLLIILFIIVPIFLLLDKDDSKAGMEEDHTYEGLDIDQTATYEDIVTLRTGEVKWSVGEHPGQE

[2] = biological target: T1, human CD79b on the cell surface; assay: flow cytometry, Carnaval cells, 1 h 37 C; control row of Table 10, same value as Table 8
Method: (§1) All cells were washed with BD stain buffer (BD Biosciences; Cat #554657), centrifuged at 1200 RPM for 3 minutes, with supernatant discarded. Cells were then stained for 20 minutes at 4° C. with BD stain buffer containing AlexaFluor 647 labeled anti-human IgG secondary antibody (Jackson Immuno; Cat #109-606-098) at a 1:200 dilution along with Aqua Fixable Live/Dead stain (Invitrogen; Cat #L34957) at a 1:400 dilution. All cells were washed with BD stain buffer (BD Biosciences; Cat #554657), centrifuged at 1200 RPM for 3 mins, with supernatant discarded. Cells were analyzed using Intellicyt (Sartorius) flow cytometer and mean fluorescent intensity (MFI) was generated using Forcyt software (Sartorius). MFI was graphed and EC50 values generated using GraphPad PRISM v.8. Dose response curves were generated by transforming the x axis values using the formula […]. Data was then graphed using non-linear regression curve fit analysis “log(agonist) vs. response-variable slope (four parameter)”.

[3] = biological target: T2, recombinant extracellular domain of human CD79b, long isoform (human, UniProt P40259 29-159); assay: SPR Biacore 8k, antibody captured by anti-Fc, 25 C
T2 construct: also called hu CD79b long
T2 sequence: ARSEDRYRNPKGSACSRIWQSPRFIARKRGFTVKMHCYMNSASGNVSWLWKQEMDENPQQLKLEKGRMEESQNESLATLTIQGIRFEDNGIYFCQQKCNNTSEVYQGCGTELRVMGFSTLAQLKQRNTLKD
Method: (§2) General Protocol for SPR Affinity Assessment: Affinity assessment of the bispecific trispecific constructs against human CD79b were measure using recombinantly expressed extracellular domain of CD79b short and long isoforms (CD9W7.001 and CD9W8.001, respectively) by Surface Plasmon Resonance (SPR) using a Biacore 8k SPR system (Biacore) at 25° C. in HBSP+ buffer. Cross-reactivity of the same antibody panel was also assessed against cyno and mouse antigens (CD9W1.001 and CD9W105.001, respectively). Briefly, a C1 sensor chip was immobilized with anti-human Fc (target immobilization levels of >400 RU) using vendor recommended amino coupling protocol. […] The association and dissociation phases were measured for 2 or 3 minutes and 30 minutes, respectively.
(§3) The raw binding sensorgrams were processed using Biacore Insight software (Biacore) by double-referencing and the processed sensorgrams were analyzed for cross-reactivity and fitted to a 1:1 Langmuir model to obtain on-rates, off-rates and affinities.

[4] = biological target: T3, recombinant extracellular domain of human CD79b, short isoform (human, UniProt P40259 29-159); assay: SPR Biacore 8k, antibody captured by anti-Fc, 25 C
T3 chain: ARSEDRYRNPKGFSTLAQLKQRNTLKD
Method: as §2, §3

[5] = biological target: T4, cynomolgus monkey CD79b antigen (cynomolgus monkey); assay: SPR Biacore 8k, cyno CD79b injected up to 3000 nM
T4 construct: also called cyno CD79b; CD9W1.001
Method: as §2, §3

[6] = biological target: T1, human CD79b on the cell surface; assay: flow cytometry, Carnaval cells, 1 h 37 C
Method: as §1

[7] = biological target: T1, human CD79b on the cell surface; assay: flow cytometry, HBL-1 cells, 1 h 37 C; control row of Table 10, same value as Table 8
Method: as §1

[8] = biological target: T1, human CD79b on the cell surface; assay: cell-based or functional assay; remark: listed apart in the source
[9] = biological target: T1, human CD79b on the cell surface; assay: flow cytometry, HBL-1 cells, 1 h 37 C
Method: as §1

[10] = biological target: T1, human CD79b on the cell surface; assay: cell-based or functional assay; remark: listed apart in the source
[11] = biological target: T1, human CD79b on the cell surface; assay: cell-based or functional assay; remark: listed apart in the source
[12] = biological target: T5, human CD79b and CD20 co-expressed on the surface of B-lymphoma cell lines or primary B cells (human, UniProt P11836 1-297); assay: cell-based or functional assay
T5 sequence 1: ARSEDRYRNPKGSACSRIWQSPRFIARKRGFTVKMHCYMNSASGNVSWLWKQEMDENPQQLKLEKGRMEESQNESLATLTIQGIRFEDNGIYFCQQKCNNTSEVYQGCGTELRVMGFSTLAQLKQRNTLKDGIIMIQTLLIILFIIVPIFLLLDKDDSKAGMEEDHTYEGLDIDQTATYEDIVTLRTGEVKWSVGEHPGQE
T5 sequence 2: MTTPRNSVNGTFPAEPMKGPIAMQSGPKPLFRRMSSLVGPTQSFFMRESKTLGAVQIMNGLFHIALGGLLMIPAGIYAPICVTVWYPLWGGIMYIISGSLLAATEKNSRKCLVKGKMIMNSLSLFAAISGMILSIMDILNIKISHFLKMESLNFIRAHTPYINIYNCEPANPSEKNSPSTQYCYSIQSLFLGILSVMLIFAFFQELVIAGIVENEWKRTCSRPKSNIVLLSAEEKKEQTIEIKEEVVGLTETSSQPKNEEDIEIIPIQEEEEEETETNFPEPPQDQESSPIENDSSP

[13] = biological target: T5, human CD79b and CD20 co-expressed on …; assay: cell-based or functional assay; remark: listed apart in the source
[14] = biological target: T5, human CD79b and CD20 co-expressed on …; assay: cell-based or functional assay; remark: listed apart in the source
[15] = biological target: T5, human CD79b and CD20 co-expressed on …; assay: flow cytometry, HBL-1 cells (CD79b+ CD20+), 1 h 37 C
Method: as §1

[16] = biological target: T5, human CD79b and CD20 co-expressed on …; assay: flow cytometry, OCI-LY10 cells (CD79b+ CD20+), 1 h 37 C
Method: as §1

[17] = biological target: T5, human CD79b and CD20 co-expressed on …; assay: flow cytometry, Carnaval cells (CD79b+ CD20+), 1 h 37 C
Method: as §1

[18] = biological target: T5, human CD79b and CD20 co-expressed on …; assay: cell-based or functional assay; remark: listed apart in the source
[19] = biological target: T5, human CD79b and CD20 co-expressed on …; assay: cell-based or functional assay; remark: listed apart in the source

B1: 79C3B651 CD79bxCD3 bispecific antibody (bispecific antibody, human IgG1, kappa, L234A L235A)
heavy: QVQLQESGPGLVKPSQTLSLTCTVSGVSISNYYWSWIRQPPGKGLEWIGRISPSGRTNYNPSLKSRVTMSLDASKNQFSLKLSSVTAADTAVYYCARGEYSGTYSYSFDIWGQGTMVTVSSASTKGPSVFPLAPSSKSTSGGTAALGCLVKDYFPEPVTVSWNSGALTSGVHTFPAVLQSSGLYSLSSVVTVPSSSLGTQTYICNVNHKPSNTKVDKKVEPKSCDKTHTCPPCPAPEAAGGPSVFLFPPKPKDTLMISRTPEVTCVVVSVSHEDPEVKFNWYVDGVEVHNAKTKPREEQYNSTYRVVSVLTVLHQDWLNGKEYKCKVSNKALPAPIEKTISKAKGQPREPQVYTLPPSREEMTKNQVSLSCAVKGFYPSDIAVEWESNGQPENNYKTTPPVLDSDGSFFLVSKLTVDKSRWQQGNVFSCSVMHEALHNRFTQKSLSLSPGK
light: DIQMTQSPSSLSASVGDRVTITCRSSQSLFDSDDGNTYLDWFQQKPGQSPKLLIQTLSYRASGVPSRFSGSGSGTDFTLTISSLQPEDFATYYCMQRMEFPLTFGGGTKVEIKRTVAAPSVFIFPPSDEQLKSGTASVVCLLNNFYPREAKVQWKVDNALQSGNSQESVTEQDSKDSTYSLSSTLTLSKADYEKHKVYACEVTHQGLSSPVTKSFNRGEC
chain: EIVLTQSPATLSASPGERVTLSCSASSSVSYMNWYQQKPGQAPRRWIYDSSKLASGVPARFSGSGSGRDYTLTISSLEPEDFAVYYCQQWSRNPPTFGGGTKVEIKGGSEGKSSGSGSESKSTGGSQVQLVQSGAEVKKPGSSVKVSCKASGYTFTRSTMHWVKQAPGQGLEWIGYINPSSAYTNYNQKFQGRVTLTADKSTSTAYMELSSLRSEDTAVYYCASPQVHYDYAGFPYWGQGTLVTVSSEPKSSDKTHTCPPCPAPEAAGGPSVFLFPPKPKDTLMISRTPEVTCVVVSVSHEDPEVKFNWYVDGVEVHNAKTKPREEQYNSTYRVVSVLTVLHQDWLNGKEYKCKVSNKALPAPIEKTISKAKGQPREPQVYTLPPSREEMTKNQVSLWCLVKGFYPSDIAVEWESNGQPENNYKTTPPVLDSDGSFFLYSKLTVDKSRWQQGNVFSCSVMHEALHNHYTQKSLSLSPGK
notes: IgG1 bispecific; CD79b Fab arm plus CD3 scFv-Fc arm; also called 79C3B651 bsAb; CD9B643 x CD3B2030-N106A
[1]
  IC50, CARNAVAL killing, 72 h (FACS): 0.25 nM
  IC50, HBL-1 killing, 72 h (FACS): 2.2 nM
  IC50, OCI-LY10 killing, 72 h (FACS): > 100 nM
[2]
  EC50: 12 nM
[3]
  Kd: 0.052 nM
[4]
  Kd: 0.35 nM
[5]
  Kd: > 3000 nM
[6]
  EC50: 12 nM
[7]
  EC50: 15 nM
[8]
  IC50, T-cell killing of OCI-Ly10 (Incucyte): 4.7 nM
[9]
  EC50: 15 nM
[10]
  Cmax (maximum cytotoxicity), donor 1: 5%
  Cmax (maximum cytotoxicity), donor 2: 13%
  Cmax (maximum cytotoxicity), donor 3: 34%
  EC50, autologous B-cell depletion, donor 3: 17 nM
[11]
  IC50, T-cell killing of HBL-1 (Incucyte): 0.0325 nM

B2: C923B99 CD79bxCD20xCD3 trispecific antibody (other)
heavy: QVQLQESGPGLVKPSQTLSLTCTVSGVSISNYYWSWIRQPPGKGLEWIGRISPSGRTNYNPSLKSRVTMSLDASKNQFSLKLSSVTAADTAVYYCARGEYSGTYSYSFDIWGQGTMVTVSSASTKGPSVFPLAPSSKSTSGGTAALGCLVKDYFPEPVTVSWNSGALTSGVHTFPAVLQSSGLYSLSSVVTVPSSSLGTQTYICNVNHKPSNTKVDKKVEPKSCDKTHTCPPCPAPEAAGGPSVFLFPPKPKDTLMISRTPEVTCVVVSVSHEDPEVKFNWYVDGVEVHNAKTKPREEQYNSTYRVVSVLTVLHQDWLNGKEYKCKVSNKALPAPIEKTISKAKGQPREPQVYTLPPSREEMTKNQVSLSCAVKGFYPSDIAVEWESNGQPENNYKTTPPVLDSDGSFFLVSKLTVDKSRWQQGNVFSCSVMHEALHNRFTQKSLSLSPGK
light: DIQMTQSPSSLSASVGDRVTITCRSSQSLFDSDDGNTYLDWFQQKPGQSPKLLIQTLSYRASGVPSRFSGSGSGTDFTLTISSLQPEDFATYYCMQRMEFPLTFGGGTKVEIKRTVAAPSVFIFPPSDEQLKSGTASVVCLLNNFYPREAKVQWKVDNALQSGNSQESVTEQDSKDSTYSLSSTLTLSKADYEKHKVYACEVTHQGLSSPVTKSFNRGEC
chain: EIVLTQSPATLSASPGERVTLSCSASSSVSYMNWYQQKPGQAPRRWIYDSSKLASGVPARFSGSGSGRDYTLTISSLEPEDFAVYYCQQWSRNPPTFGGGTKVEIKGGSEGKSSGSGSESKSTGGSQVQLVQSGAEVKKPGSSVKVSCKASGYTFTRSTMHWVKQAPGQGLEWIGYINPSSAYTNYNQKFQGRVTLTADKSTSTAYMELSSLRSEDTAVYYCASPQVHYDYAGFPYWGQGTLVTVSSEPKSSDKTHTCPPCPAPEAAGGPSVFLFPPKPKDTLMISRTPEVTCVVVSVSHEDPEVKFNWYVDGVEVHNAKTKPREEQYNSTYRVVSVLTVLHQDWLNGKEYKCKVSNKALPAPIEKTISKAKGQPREPQVYTLPPSREEMTKNQVSLWCLVKGFYPSDIAVEWESNGQPENNYKTTPPVLDSDGSFFLYSKLTVDKSRWQQGNVFSCSVMHEALHNHYTQKSLSLSPGKGGSEGKSSGSGSESKSTGGSAIQLTQSPSSLSASVGDRVTITCRASSSVSYIHWFQQKPGKAPKPLIYATSNLASGVPSRFSGSGSGTDFTLTISSLQPEDFATYYCQQWTSNPPTFGQGTKLEIKGGSEGKSSGSGSESKSTGGSQVQLVQSGAEVKKPGSSVKVSCKASGYTFTSYNMHWVRQAPGQGLEWMGAIYPGNGDTSYAQKFQGRVTITADKSTSTAYMELSSLRSEDTAVYYCARSTYYGGDWYFNVWGQGTLVTVSS
notes: Trispecific IgG1; also called CD9B643 / CD3B2030-N106A-scFv-LH-C20B22
[12]
  IC50, CARNAVAL killing, 72 h (FACS): 0.17 nM
  IC50, HBL-1 killing, 72 h (FACS): 1.68 nM
  IC50, OCI-LY10 killing, 72 h (FACS): 16.9 nM
[3]
  Kd: 0.04 nM
[4]
  Kd: 0.27 nM
[5]
  Kd: > 3000 nM
[13]
  IC50, CARNAVAL killing (Incucyte): 0.285 nM
[14]
  IC50, T-cell killing of OCI-Ly10 (Incucyte): 5.6 nM
[15]
  EC50: 8 nM
[16]
  EC50: 2 nM
[17]
  EC50: 6 nM
[18]
  Cmax (maximum cytotoxicity), donor 1: 35%
  Cmax (maximum cytotoxicity), donor 2: 67%
  Cmax (maximum cytotoxicity), donor 3: 66%
  EC50, autologous B-cell depletion, donor 2: 9 nM
  EC50, autologous B-cell depletion, donor 3: 23 nM
[19]
  IC50, T-cell killing of HBL-1 (Incucyte): 0.0692 nM
